Experimental findings from the Human Domainome abundance scans (Beltran et al. 2025) are described below.

The labels stand for the following.
B1: Far upstream element-binding protein 1, residues 184 to 257; numbered along this chain, Q96AE4 (parent)
chain: GNAVQEIMIPASKAGLVIGKGGETIKQLQERAGVKMVMIQDGPQNTGADKPLRITGDPYKVQQAKEMVLELIRD

± gives the uncertainty stated by the source.

This data set covers variants of B1. In words: abundance fitness (aPCA) (normalised: wild type 0, dead -1); higher = more abundant; growth selection in yeast, the domain comes from the species named. The note with it: Homo sapiens.
As to GNAVQEIMIPASKAGLVIGKGGETIKQLQERARVKMVMIQDGPQNTGADKPLRITGDPYKVQQAKEMVLELIRD [G33R], the abundance fitness was -0.119 ± 0.027.

Take GNAVQEIMIPASKAGLVIGKGGETIKQLQERAWVKMVMIQDGPQNTGADKPLRITGDPYKVQQAKEMVLELIRD [G33W]: the abundance fitness is -0.807 ± 0.046.

Turning to GNAVQEIMIPASKAGLVIGKGGETIKQLQERPGVKMVMIQDGPQNTGADKPLRITGDPYKVQQAKEMVLELIRD [A32P], the abundance fitness is -0.706 ± 0.046.

On to GNAVQEIMIPASKAGLVIGKGGETIKQLQERTGVKMVMIQDGPQNTGADKPLRITGDPYKVQQAKEMVLELIRD [A32T], for which the abundance fitness came to 0.02 ± 0.035.

For the variant GNAVQEIMIPASKAGLVIGKGGETIKQLQERHGVKMVMIQDGPQNTGADKPLRITGDPYKVQQAKEMVLELIRD [A32H], the abundance fitness amounted to 0.031 ± 0.052.

With GNAVQEIMIPASKAGLVIGKGGETIKQLQEREGVKMVMIQDGPQNTGADKPLRITGDPYKVQQAKEMVLELIRD [A32E], the abundance fitness is -0.201 ± 0.038.

With GNAVQEIMIPASKAGLVIGKGGETIKQLQERIGVKMVMIQDGPQNTGADKPLRITGDPYKVQQAKEMVLELIRD [A32I], the abundance fitness is -0.034 ± 0.052.

In the case of GNAVQEIMIPASKAGLVIGKGGETIKQLQERLGVKMVMIQDGPQNTGADKPLRITGDPYKVQQAKEMVLELIRD [A32L], the abundance fitness was -0.017 ± 0.031.

With GNAVQEIMIPASKAGLVIGKGGETIKQLQERWGVKMVMIQDGPQNTGADKPLRITGDPYKVQQAKEMVLELIRD [A32W], the abundance fitness was -0.057 ± 0.037.

As for GNAVQEIMIPASKAGLVIGKGGETIKQLQERNGVKMVMIQDGPQNTGADKPLRITGDPYKVQQAKEMVLELIRD [A32N], the abundance fitness was 0.029 ± 0.051.

Take GNAVQEIMIPASKAGLVIGKGGETIKQLQERMGVKMVMIQDGPQNTGADKPLRITGDPYKVQQAKEMVLELIRD [A32M]: the abundance fitness is -0.009 ± 0.042.

As for GNAVQEIMIPASKAGLVIGKGGETIKQLQERKGVKMVMIQDGPQNTGADKPLRITGDPYKVQQAKEMVLELIRD [A32K], the abundance fitness was -0.171 ± 0.046.

For the variant GNAVQEIMIPASKAGLVIGKGGETIKQLQERSGVKMVMIQDGPQNTGADKPLRITGDPYKVQQAKEMVLELIRD [A32S], the abundance fitness is -0.013 ± 0.032.

As to GNAVQEIMIPASKAGLVIGKGGETIKQLQERQGVKMVMIQDGPQNTGADKPLRITGDPYKVQQAKEMVLELIRD [A32Q], the abundance fitness is -0.077 ± 0.04.

Consider GNAVQEIMIPASKAGLVIGKGGETIKQLQERRGVKMVMIQDGPQNTGADKPLRITGDPYKVQQAKEMVLELIRD [A32R], for which the abundance fitness is -0.367 ± 0.031.

GNAVQEIMIPASKAGLVIGKGGETIKQLQERGGVKMVMIQDGPQNTGADKPLRITGDPYKVQQAKEMVLELIRD [A32G]: the abundance fitness was -0.075 ± 0.03.

For the variant GNAVQEIMIPASKAGLVIGKGGETIKQLQERVGVKMVMIQDGPQNTGADKPLRITGDPYKVQQAKEMVLELIRD [A32V], the abundance fitness was -0.062 ± 0.033.

GNAVQEIMIPASKAGLVIGKGGETIKQLQERFGVKMVMIQDGPQNTGADKPLRITGDPYKVQQAKEMVLELIRD [A32F]: the abundance fitness was 0.054 ± 0.046.

Regarding GNAVQEIMIPASKAGLVIGKGGETIKQLQERYGVKMVMIQDGPQNTGADKPLRITGDPYKVQQAKEMVLELIRD [A32Y], the abundance fitness was -0.016 ± 0.051.

As for GNAVQEIMIPASKAGLVIGKGGETIKQLQERAGVSMVMIQDGPQNTGADKPLRITGDPYKVQQAKEMVLELIRD [K35S], the abundance fitness was -0.116 ± 0.032.

For the variant GNAVQEIMIPASKAGLVIGKGGETIKQLQERAGVEMVMIQDGPQNTGADKPLRITGDPYKVQQAKEMVLELIRD [K35E], the abundance fitness came to 0.003 ± 0.035.

In the case of GNAVQEIMIPASKAGLVIGKGGETIKQLQERAGVPMVMIQDGPQNTGADKPLRITGDPYKVQQAKEMVLELIRD [K35P], the abundance fitness is -0.472 ± 0.042.

Take GNAVQEIMIPASKAGLVIGKGGETIKQLQERAGVFMVMIQDGPQNTGADKPLRITGDPYKVQQAKEMVLELIRD [K35F]: the abundance fitness is -0.261 ± 0.053.

On to GNAVQEIMIPASKAGLVIGKGGETIKQLQERAGVWMVMIQDGPQNTGADKPLRITGDPYKVQQAKEMVLELIRD [K35W], for which the abundance fitness is -0.308 ± 0.036.

GNAVQEIMIPASKAGLVIGKGGETIKQLQERAGVGMVMIQDGPQNTGADKPLRITGDPYKVQQAKEMVLELIRD [K35G]: the abundance fitness is -0.071 ± 0.027.

As for GNAVQEIMIPASKAGLVIGKGGETIKQLQERAGVTMVMIQDGPQNTGADKPLRITGDPYKVQQAKEMVLELIRD [K35T], the abundance fitness was -0.093 ± 0.038.

Consider GNAVQEIMIPASKAGLVIGKGGETIKQLQERAGVCMVMIQDGPQNTGADKPLRITGDPYKVQQAKEMVLELIRD [K35C], for which the abundance fitness was -0.11 ± 0.043.

GNAVQEIMIPASKAGLVIGKGGETIKQLQERAGVVMVMIQDGPQNTGADKPLRITGDPYKVQQAKEMVLELIRD [K35V]: the abundance fitness was -0.124 ± 0.03.

As to GNAVQEIMIPASKAGLVIGKGGETIKQLQERAGVQMVMIQDGPQNTGADKPLRITGDPYKVQQAKEMVLELIRD [K35Q], the abundance fitness worked out at 0.015 ± 0.039.

Consider GNAVQEIMIPASKAGLVIGKGGETIKQLQERAGVLMVMIQDGPQNTGADKPLRITGDPYKVQQAKEMVLELIRD [K35L], for which the abundance fitness is -0.118 ± 0.03.

For the variant GNAVQEIMIPASKAGLVIGKGGETIKQLQERAGVYMVMIQDGPQNTGADKPLRITGDPYKVQQAKEMVLELIRD [K35Y], the abundance fitness is -0.248 ± 0.055.

On to GNAVQEIMIPASKAGLVIGKGGETIKQLQERAGVRMVMIQDGPQNTGADKPLRITGDPYKVQQAKEMVLELIRD [K35R], for which the abundance fitness was -0.007 ± 0.027.

With GNAVQEIMIPASKAGLVIGKGGETIKQLQERAGVIMVMIQDGPQNTGADKPLRITGDPYKVQQAKEMVLELIRD [K35I], the abundance fitness was -0.158 ± 0.055.

Turning to GNAVQEIMIPASKAGLVIGKGGETIKQLQERAGVDMVMIQDGPQNTGADKPLRITGDPYKVQQAKEMVLELIRD [K35D], the abundance fitness is -0.07 ± 0.046.

With GNAVQEIMIPASKAGLVIGKGGETIKQLQERAGVNMVMIQDGPQNTGADKPLRITGDPYKVQQAKEMVLELIRD [K35N], the abundance fitness came to 0.023 ± 0.052.

Regarding GNAVQEIMIPASKAGLVIGKGGETIKQLQERAGVMMVMIQDGPQNTGADKPLRITGDPYKVQQAKEMVLELIRD [K35M], the abundance fitness is -0.154 ± 0.039.

Take GNAVQEIMIPASKAGLVIGKGGETIKQLQERAGVHMVMIQDGPQNTGADKPLRITGDPYKVQQAKEMVLELIRD [K35H]: the abundance fitness turned out to be 0.003 ± 0.058.
